Test results reported in article PMC8002387.

Molecular target: QtEnc^FLAG (encapsulin shell protein from Quasibacillus thermotolerans with a C-terminal FLAG tag) (Quasibacillus thermotolerans)

Substance: DD-mScarlet-I-QtSig (destabilized fluorescent cargo protein)
- mScarlet-I fluorescence (RFP channel) of HepG2 cells coexpressing QtEnc^FLAG and the degron-tagged cargo; share of fluorescent cells; cells with the cargo alone gave a weak background signal: 20 % of cells
